Results: US12545899B2, “Luciferase enzymes for use with thermostable luciferins in bioluminescent assays” (Promega Corporation, priority 2018, dated 2026)

Experiments:
[1] = Differential scanning fluorimetry (DSF) analysis; type: physicochemical; settings: Table 9A
In short: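 Thermal melt with 5× final Sypro Orange: ramp 1° C/min from 30 to 95° C, reading each 60 s, derivative of fluorescence plotted by temperature. Luciferase variants were in 20 mM HEPES pH 7.5, 200 mM NaCl, 1 mM EDTA; other enzymes in 50 mM HEPES pH 7.5, 100 mM NaCl, 2 mM EDTA.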

[2] = Effect of individual mutations: maximum luminescence with CS0333; type: biochemical; settings: 10 fM to 1 mM CS0333; Detection Reagent (DR) buffer
Method: Experiments were also conducted to evaluate and compare the activities of the various luciferase enzyme variants, including the effects of individual amino acid mutations. To evaluate the effect of individual mutations on luciferase enzyme variants, 0.005 mg/ml luciferase enzyme variant was mixed with 1 mM ATP+10 fM to 1 mM CS0333 in Detection Reagent (DR) buffer.

Molecule	DSF Tm (° C.) [1] [°C]	Vmax (RLU) with CS0333 [2]
MK0116: SEQ ID NO: 83; I396L (protein) MADKNILYGPEPFYPLEDGTAGEQMFDALSRYAAIPGCIALTNAHTKENVLYEEFLKLSCRLAESFKKYGLKQNDTIAVCSENSLQFFLPVIASLYLGIIVAPVNDKYVERELIHSLGIVKPRIVFCSKNTFQKVLNVKSKLKSIETIIILDLNEDLGGYQCLNNFISQNSDSNLDVKKFKPYSFNRDDQVAAIMFSSGTTGLPKGVMLTHKNIVARFSIAKDPTFGNAINPTSAILTVIPFHWGFGMMTTLGYFTCGFRVVLMHTFEEKLFLQSLQDYKVESTLLVPTLMAFLAKSALVEKYDFPHLKEIASGGAPLSKEIGEMVKKRFKLNFVRQGYGLTEATSAVLITPKGDAKPGSTGKIVPLHAVKVVDPTTGKILGPNEPGELYFKGPMKMKGYYNNEEATKAIIDNDGWLRSGDIAYYDNDGHFYIVDRLKSLIKYKGYQVAPAEIEGILLQHPYIVDAGVTGIPDEAAGELPAAGVVVQTGKYLNEQIVQDYVASQVSTAKWLRGGVKFLDEIPKGSTGKIDRKVLRQMLEKHTNGHHHHHHHH	73	7,428 RLU
MK0117: SEQ ID NO: 84; H244W+T344A+I396K+S193A+N228D+L305F+S306P (protein) MADKNILYGPEPFYPLEDGTAGEQMFDALSRYAAIPGCIALTNAHTKENVLYEEFLKLSCRLAESFKKYGLKQNDTIAVCSENSLQFFLPVIASLYLGIIVAPVNDKYVERELIHSLGIVKPRIVFCSKNTFQKVLNVKSKLKSIETIIILDLNEDLGGYQCLNNFISQNSDSNLDVKKFKPYSFNRDDQVAAIMFSSGTTGLPKGVMLTHKNIVARFSIAKDPTFGDAINPTSAILTVIPFHWGFGMMTTLGYFTCGFRVVLMHTFEEKLFLQSLQDYKVESTLLVPTLMAFLAKSALVEKYDFPHLKEIASGGAPLSKEIGEMVKKRFKLNFVRQGYGLTEATSAVLITPKGDAKPGSTGKIVPLHAVKVVDPTTGKILGPNEPGELYFKGPMKMKGYYNNEEATKAIIDNDGWLRSGDIAYYDNDGHFYIVDRLKSLIKYKGYQVAPAEIEGILLQHPYIVDAGVTGIPDEAAGELPAAGVVVQTGKYLNEQIVQDYVASQVSTAKWLRGGVKFLDEIPKGSTGKIDRKVLRQMLEKHTNGHHHHHHHH	63	3,820,310 RLU
MK0118: SEQ ID NO: 85; H244W+T344A+I396K+N228D+L305F+S306P+I109V (protein) MADKNILYGPEPFYPLEDGTAGEQMFDALSRYAAIPGCIALTNAHTKENVLYEEFLKLSCRLAESFKKYGLKQNDTIAVCSENSLQFFLPVIASLYLGIIVAPVNDKYVERELIHSLGIVKPRIVFCSKNTFQKVLNVKSKLKSIETIIILDLNEDLGGYQCLNNFISQNSDSNLDVKKFKPYSFNRDDQVAAIMFSSGTTGLPKGVMLTHKNIVARFSIAKDPTFGDAINPTSAILTVIPFHWGFGMMTTLGYFTCGFRVVLMHTFEEKLFLQSLQDYKVESTLLVPTLMAFLAKSALVEKYDFPHLKEIASGGAPLSKEIGEMVKKRFKLNFVRQGYGLTEATSAVLITPKGDAKPGSTGKIVPLHAVKVVDPTTGKILGPNEPGELYFKGPMKMKGYYNNEEATKAIIDNDGWLRSGDIAYYDNDGHFYIVDRLKSLIKYKGYQVAPAEIEGILLQHPYIVDAGVTGIPDEAAGELPAAGVVVQTGKYLNEQIVQDYVASQVSTAKWLRGGVKFLDEIPKGSTGKIDRKVLRQMLEKHTNGHHHHHHHH	63	3,455,610 RLU
MK0119: SEQ ID NO: 86; T344A+I396K+S193A+N228D+L305F+S306P+I109V (protein) MADKNILYGPEPFYPLEDGTAGEQMFDALSRYAAIPGCIALTNAHTKENVLYEEFLKLSCRLAESFKKYGLKQNDTIAVCSENSLQFFLPVIASLYLGIIVAPVNDKYVERELIHSLGIVKPRIVFCSKNTFQKVLNVKSKLKSIETIIILDLNEDLGGYQCLNNFISQNSDSNLDVKKFKPYSFNRDDQVAAIMFSSGTTGLPKGVMLTHKNIVARFSIAKDPTFGDAINPTSAILTVIPFHWGFGMMTTLGYFTCGFRVVLMHTFEEKLFLQSLQDYKVESTLLVPTLMAFLAKSALVEKYDFPHLKEIASGGAPLSKEIGEMVKKRFKLNFVRQGYGLTEATSAILITPKGDAKPGSTGKIVPLHAVKVVDPTTGKILGPNEPGELYFKGPMKMKGYYNNEEATKAIIDNDGWLRSGDIAYYDNDGHFYIVDRLKSLIKYKGYQVAPAEIEGILLQHPYIVDAGVTGIPDEAAGELPAAGVVVQTGKYLNEQIVQDYVASQVSTAKWLRGGVKFLDEIPKGSTGKIDRKVLRQMLEKHTNGHHHHHHHH	64	62,167 RLU
MK0120: SEQ ID NO: 87; H244W+T344A+I396K+S193A+N228D+S306P+I109V (protein) MADKNILYGPEPFYPLEDGTAGEQMFDALSRYAAIPGCIALTNAHTKENVLYEEFLKLSCRLAESFKKYGLKQNDTIAVCSENSLQFFLPVIASLYLGIIVAPVNDKYVERELIHSLGIVKPRIVFCSKNTFQKVLNVKSKLKSIETIIILDLNEDLGGYQCLNNFISQNSDSNLDVKKFKPYSFNRDDQVAAIMFSSGTTGLPKGVMLTHKNIVARFSIAKDPTFGDAINPTSAILTVIPFHWGFGMMTTLGYFTCGFRVVLMHTFEEKLFLQSLQDYKVESTLLVPTLMAFLAKSALVEKYDFPHLKEIASGGMPLSKEIGEMVKKRFKLNFVRQGYGLTEATSAVLITPKGDAKPGSTGKIVPLHAVKVVDPTTGKILGPNEPGELYFKGPMKMKGYYNNEEATKAIIDNDGWLRSGDIAYYDNDGHFYIVDRLKSLIKYKGYQVAPAEIEGILLQHPYIVDAGVTGIPDEAAGELPAAGVVVQTGKYLNEQIVQDYVASQVSTAKWLRGGVKFLDEIPKGSTGKIDRKVLRQMLEKHTNGHHHHHHHH	62	3,192,740 RLU
MK0121: SEQ ID NO: 88; H244W+T344A+I396K+S193A+N228D+L305F+I109V (protein) MADKNILYGPEPFYPLEDGTAGEQMFDALSRYAAIPGCIALTNAHTKENVLYEEFLKLSCRLAESFKKYGLKQNDTIAVCSENSLQFFLPVIASLYLGIIVAPVNDKYVERELIHSLGIVKPRIVFCSKNTFQKVLNVKSKLKSIETIIILDLNEDLGGYQCLNNFISQNSDSNLDVKKFKPYSFNRDDQVAAIMFSSGTTGLPKGVMLTHKNIVARFSIAKDPTFGDAINPTSAILTVIPFHWGFGMMTTLGYFTCGFRVVLMHTFEEKLFLQSLQDYKVESTLLVPTLMAFLAKSALVEKYDFPHLKEIASGGWPLSKEIGEMVKKRFKLNFVRQGYGLTEATSAVLITPKGDAKPGSTGKIVPLHAVKVVDPTTGKILGPNEPGELYFKGPMKMKGYYNNEEATKAIIDNDGWLRSGDIAYYDNDGHFYIVDRLKSLIKYKGYQVAPAEIEGILLQHPYIVDAGVTGIPDEAAGELPAAGVVVQTGKYLNEQIVQDYVASQVSTAKWLRGGVKFLDEIPKGSTGKIDRKVLRQMLEKHTNGHHHHHHHH	62	2,643,970 RLU
MK0122: SEQ ID NO: 89; H244W+I396K+S193A+N228D+L305F+S306P+I109V (protein) MADKNILYGPEPFYPLEDGTAGEQMFDALSRYAAIPGCIALTNAHTKENVLYEEFLKLSCRLAESFKKYGLKQNDTIAVCSENSLQFFLPVIASLYLGIIVAPVNDKYVERELIHSLGIVKPRIVFCSKNTFQKVLNVKSKLKSIETIIILDLNEDLGGYQCLNNFISQNSDSNLDVKKFKPYSFNRDDQVAAIMFSSGTTGLPKGVMLTHKNIVARFSIAKDPTFGDAINPTSAILTVIPFHWGFGMMTTLGYFTCGFRVVLMHTFEEKLFLQSLQDYKVESTLLVPTLMAFLAKSALVEKYDFPHLKEIASGGAPLSKEIGEMVKKRFKLNFVRQGMGLTEATSAVLITPKGDAKPGSTGKIVPLHAVKVVDPTTGKILGPNEPGELYFKGPMKMKGYYNNEEATKAIIDNDGWLRSGDIAYYDNDGHFYIVDRLKSLIKYKGYQVAPAEIEGILLQHPYIVDAGVTGIPDEAAGELPAAGVVVQTGKYLNEQIVQDYVASQVSTAKWLRGGVKFLDEIPKGSTGKIDRKVLRQMLEKHTNGHHHHHHHH	69	962,171 RLU
MK0123: SEQ ID NO: 90; H244W+T344A+S193A+N228D+L305F+S306P+I109V (protein) MADKNILYGPEPFYPLEDGTAGEQMFDALSRYAAIPGCIALTNAHTKENVLYEEFLKLSCRLAESFKKYGLKQNDTIAVCSENSLQFFLPVIASLYLGIIVAPVNDKYVERELIHSLGIVKPRIVFCSKNTFQKVLNVKSKLKSIETIIILDLNEDLGGYQCLNNFISQNSDSNLDVKKFKPYSFNRDDQVAAIMFSSGTTGLPKGVMLTHKNIVARFSIAKDPTFGDAINPTSAILTVIPFHWGFGMMTTLGYFTCGFRVVLMHTFEEKLFLQSLQDYKVESTLLVPTLMAFLAKSALVEKYDFPHLKEIASGGAPLSKEIGEMVKKRFKLNFVRQGYGLSEATSAVLITPKGDAKPGSTGKIVPLHAVKVVDPTTGKILGPNEPGELYFKGPMKMKGYYNNEEATKAIIDNDGWLRSGDIAYYDNDGHFYIVDRLKSLIKYKGYQVAPAEIEGILLQHPYIVDAGVTGIPDEAAGELPAAGVVVQTGKYLNEQIVQDYVASQVSTAKWLRGGVKFLDEIPKGSTGKIDRKVLRQMLEKHTNGHHHHHHHH	72	2,841,640 RLU
